Source: patent publication US20050066376

Test system: T1, Minos transposase (fly cDNA ILMi) (Drosophila hydei)
T1 sequence: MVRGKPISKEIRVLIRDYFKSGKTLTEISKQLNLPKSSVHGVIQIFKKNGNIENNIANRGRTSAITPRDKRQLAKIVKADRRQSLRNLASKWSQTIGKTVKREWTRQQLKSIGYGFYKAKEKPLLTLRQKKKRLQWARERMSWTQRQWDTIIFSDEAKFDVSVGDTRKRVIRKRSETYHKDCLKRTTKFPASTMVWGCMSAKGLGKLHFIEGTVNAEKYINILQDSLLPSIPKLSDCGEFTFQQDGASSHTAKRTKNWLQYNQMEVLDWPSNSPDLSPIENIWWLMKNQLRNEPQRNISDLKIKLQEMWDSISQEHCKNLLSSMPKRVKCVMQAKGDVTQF
Test: cell_activity
Conditions: germ-line transposition frequency in mouse, 12 events in 146 transposon-positive progeny; TA target site duplication

Minos transposon MiCMVGFP (Minos inverted repeats flanking CMV-GFP)
activity: 8.2%
